Source: the supplement of paper PMC7877785
± gives the uncertainty stated by the source.

Assay: self-splicing fitness, log relative to wild type (ln ratio); higher = more splicing; Tetrahymena group I intron in knt gene, E. coli kanamycin selection, DiMSum; sequences stand for … in CUCUCU…GGAGGGAAAAGUUAUCAGGCAUGCACCUGGUAGCUAGUCUUUAAACCAAUAGAUUGCAUCGGUUUAAAAGGCAAGACCGUCAAAUUGCGGGAAAGGGGUCAACAGCCGUUCAGUACCAAGUCUCAGGGGAAACUUUGAGAUGGCCUUGCAAAGGGUAUGGUAAUAAGCUGACGGACAUGGUCCUAACCACGCAGCCAAGUCCUAAGUCAACAGAUCUUCUGUUGAUAUGGAUGCAGUUCACAGACUAAAUGUCGGUCGGGGAAGAUGUAUUCUUCUCAUAAGAUAUAGUCGGACCUCUCCUUAAUGGGAGCUAGCGGAUGAAGUGAUGCAACACUGGAGCCGCUGGGAACUAAUUUGUAUGCGAAAGUAUAUUGAUUAGUUUUGGAGUACUCGUGGUCG
In short: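 Six replicate transformations of E. coli BL21(DE3) with a pET-22b(+) library were grown overnight at 37°C or 30°C. The library randomised all eight P1ex-region intron nucleotides, the intron lying in the knt kanamycin-resistance gene, and plates were LB agar with or without 25 μg/mL kanamycin plus 100 μg/mL carbenicillin, 50 μM IPTG and 0.2% rhamnose. Pooled colonies were amplicon-sequenced on an Illumina HiSeq 2500, and fitness is the DiMSum error-weighted combination of wild-type-normalised replicate fold changes, kanamycin versus none.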

Sequence | self-splicing fitness (ln) (30 °C) | self-splicing fitness (ln) (37 °C)
CAUUAGCAAUAUUACGAGAU | -4.04 ± 0.46 | -2.9 ± 0.24
AAUCAGCAAUAUUACGUCCC | -0.818 ± 0.1 | 0.164 ± 0.14
CAGUAGCAAUAUUACGAUAG | 0.00229 ± 0.079 | 0.167 ± 0.097
ACAAAGCAAUAUUACGGGGC | -3.69 ± 0.23 | -3.28 ± 0.27
UCAUAGCAAUAUUACGAGAA | -2.05 ± 0.3 | -2.55 ± 0.36
ACUCAGCAAUAUUACGGAGA | -0.941 ± 0.12 | -0.997 ± 0.13
GUCUAGCAAUAUUACGCCUU | -0.385 ± 0.16 | 0.266 ± 0.15
UAAAAGCAAUAUUACGCGGC | -3.63 ± 0.47 | -2.1 ± 0.31
CCCUAGCAAUAUUACGGACC | -0.914 ± 0.3 | 
CUCUAGCAAUAUUACGUCAA | -4.19 ± 0.29 | -3.45 ± 0.25
CGUCAGCAAUAUUACGUCAC |  | -1.42 ± 0.26
ACCUAGCAAUAUUACGAAGA | -2.01 ± 0.19 | -1.77 ± 0.13
CCGCAGCAAUAUUACGUUUG | -1.62 ± 0.065 | -1.36 ± 0.096
AUGUAGCAAUAUUACGAGAA | -2.68 ± 0.39 | -1.01 ± 0.22
CAACAGCAAUAUUACGCCUU | -2.95 ± 0.11 | -1.1 ± 0.081
GUUCAGCAAUAUUACGGAAG | -0.667 ± 0.088 | 0.566 ± 0.12
UAGUAGCAAUAUUACGGAGU | -4.27 ± 0.28 | -2.62 ± 0.16
ACGCAGCAAUAUUACGGAGA | -2.66 ± 0.3 | -2.41 ± 0.2
GAAUAGCAAUAUUACGGGAU | -2.06 ± 0.13 | -2.06 ± 0.16
ACUGAGCAAUAUUACGAAGU | -3.93 ± 0.3 | -3.03 ± 0.31
AUGAAGCAAUAUUACGAAAA | -2.58 ± 0.17 | -0.92 ± 0.15
GGGAAGCAAUAUUACGCUCA |  | -0.0289 ± 0.38
UAAAAGCAAUAUUACGGGCU | -2.79 ± 0.23 | -2 ± 0.29
UCAGAGCAAUAUUACGCUGA | -3.04 ± 0.34 | -2.1 ± 0.37
UUACAGCAAUAUUACGUCCC | -3.48 ± 0.24 | -1.31 ± 0.25

Sequence | self-splicing fitness (ln) (30 °C) | self-splicing fitness (ln) (37 °C)
CUUAAGCAAUAUUACGUCUU | -3.64 ± 0.24 | -3.11 ± 0.25
GGACAGCAAUAUUACGGUUA | -0.28 ± 0.097 | 0.525 ± 0.11
CAAUAGCAAUAUUACGGUAA | -2.8 ± 0.14 | -2.81 ± 0.18
GUAGAGCAAUAUUACGGGCG | -1.68 ± 0.12 | -1.19 ± 0.15
CACCAGCAAUAUUACGAAGU | -3.79 ± 0.16 | -1.46 ± 0.11
GUCUAGCAAUAUUACGCCCC | 0.281 ± 0.13 | -0.182 ± 0.12
GUAUAGCAAUAUUACGAGUC | -3.65 ± 0.38 | -0.711 ± 0.19
CAUGAGCAAUAUUACGCCCA | -1.49 ± 0.42 | 
AGCCAGCAAUAUUACGUAGG | -3.77 ± 0.2 | -3.33 ± 0.24
CAAUAGCAAUAUUACGACAG | -0.279 ± 0.077 | 0.138 ± 0.094
CUAGAGCAAUAUUACGCUAG | -3.78 ± 0.34 | -2.49 ± 0.28
AGAAAGCAAUAUUACGGCUC | -1.28 ± 0.091 | -0.338 ± 0.12
UCAUAGCAAUAUUACGAAGU | -3.43 ± 0.16 | -3.51 ± 0.39
CCUCAGCAAUAUUACGUUGA | -3.03 ± 0.14 | -2.28 ± 0.14
GCUUAGCAAUAUUACGGACU | -0.304 ± 0.085 | 0.4 ± 0.093
UGUUAGCAAUAUUACGCCCC |  | 0.337 ± 0.48
AACUAGCAAUAUUACGAUCC | 0.0588 ± 0.16 | 0.358 ± 0.19
GCCUAGCAAUAUUACGACCU | -1.35 ± 0.23 | -1.02 ± 0.27
UCAAAGCAAUAUUACGGAGC |  | -3.53 ± 0.33
ACACAGCAAUAUUACGUUCA | -1.96 ± 0.066 | -0.442 ± 0.064
UGUGAGCAAUAUUACGAGGU | -3.52 ± 0.26 | -2.55 ± 0.23
ACACAGCAAUAUUACGUUUU | -3.42 ± 0.11 | -2.57 ± 0.14
UGUAAGCAAUAUUACGGCAC | -1.49 ± 0.24 | -1.48 ± 0.42
UGCUAGCAAUAUUACGUCGG | -2.68 ± 0.25 | -0.202 ± 0.23
CUUAAGCAAUAUUACGCGUA | -2.75 ± 0.34 | -3.23 ± 0.29

Sequence | self-splicing fitness (ln) (30 °C) | self-splicing fitness (ln) (37 °C)
ACAAAGCAAUAUUACGACCG | -0.343 ± 0.1 | 0.578 ± 0.13
AGGGAGCAAUAUUACGCGCU | -2.13 ± 0.23 | -0.719 ± 0.39
CGUCAGCAAUAUUACGAGUC |  | -1.18 ± 0.18
GUCCAGCAAUAUUACGCAGG | -4.01 ± 0.18 | -3.72 ± 0.24
CUCCAGCAAUAUUACGAGUG | -2.45 ± 0.11 | -1.34 ± 0.11
GUCUAGCAAUAUUACGGGGC |  | -2.34 ± 0.36
GUGGAGCAAUAUUACGACAA | -1.83 ± 0.24 | -1.38 ± 0.25
CGACAGCAAUAUUACGCGAA | -2.75 ± 0.17 | -1.42 ± 0.14
CCCGAGCAAUAUUACGCUGA | -3.44 ± 0.35 | -2.26 ± 0.2
UCAGAGCAAUAUUACGCAGU | -0.644 ± 0.22 | -1.83 ± 0.41
GACGAGCAAUAUUACGAGUG | -4.04 ± 0.31 | -2.63 ± 0.19
GGACAGCAAUAUUACGGCGC | 0.0232 ± 0.12 | 0.203 ± 0.13
GGGCAGCAAUAUUACGUAUA | -1.85 ± 0.13 | -1.1 ± 0.14
CUAUAGCAAUAUUACGUAAC | -1.97 ± 0.42 | 
UAGGAGCAAUAUUACGACGU |  | -1.9 ± 0.38
GUAGAGCAAUAUUACGUCAG | -3.1 ± 0.3 | -2.07 ± 0.23
UAGUAGCAAUAUUACGCCUG | -0.198 ± 0.12 | -0.437 ± 0.13
UAGAAGCAAUAUUACGCAUU | -2.41 ± 0.29 | -2.59 ± 0.3
GCCUAGCAAUAUUACGCAAC | -1.78 ± 0.14 | -1.21 ± 0.13
AAGCAGCAAUAUUACGUUUA | -1.53 ± 0.084 | -0.691 ± 0.074
GGACAGCAAUAUUACGUAGC | -0.679 ± 0.084 | -0.618 ± 0.098
AUGGAGCAAUAUUACGGCGG | -3.85 ± 0.37 | -1.82 ± 0.34
GCCGAGCAAUAUUACGAAGC | -2.8 ± 0.33 | -1.8 ± 0.46
AUAUAGCAAUAUUACGGGAA | -2.9 ± 0.2 | -2.23 ± 0.19
CCAGAGCAAUAUUACGCCAC | -3.59 ± 0.26 | -2.28 ± 0.24

Sequence | self-splicing fitness (ln) (30 °C) | self-splicing fitness (ln) (37 °C)
UACUAGCAAUAUUACGUGGG | -3.32 ± 0.19 | -2.46 ± 0.18
CCUGAGCAAUAUUACGGCUC | -3.81 ± 0.37 | -2.97 ± 0.41
CAGCAGCAAUAUUACGACCG | -0.0535 ± 0.096 | 0.48 ± 0.12
GCUGAGCAAUAUUACGGUGC | -3.9 ± 0.3 | -1.61 ± 0.22
CUUAAGCAAUAUUACGCGUU | -4.44 ± 0.23 | -3.85 ± 0.25
CCAAAGCAAUAUUACGCCGA | -2.83 ± 0.18 | -3.4 ± 0.23
AAUUAGCAAUAUUACGUAAG | -1.82 ± 0.12 | -0.936 ± 0.13
UCAAAGCAAUAUUACGCUUU | -3.89 ± 0.46 | -1.72 ± 0.27
CUCCAGCAAUAUUACGUGUG | -2.17 ± 0.069 | -1.5 ± 0.08
UGUCAGCAAUAUUACGCAUG | -0.692 ± 0.077 | 0.415 ± 0.097
GAUGAGCAAUAUUACGAUCU |  | -1.86 ± 0.29
GCCUAGCAAUAUUACGCCAA | -2.38 ± 0.32 | -3.18 ± 0.29
GAAUAGCAAUAUUACGACAC | -0.0325 ± 0.3 | -0.0524 ± 0.23
GAACAGCAAUAUUACGGACG | -1.88 ± 0.11 | -0.3 ± 0.12
AACUAGCAAUAUUACGAUUG | -2.97 ± 0.12 | -1.23 ± 0.12
AGUGAGCAAUAUUACGCAAU | -2.23 ± 0.4 | -0.698 ± 0.43
AGUCAGCAAUAUUACGAGAU | -2.61 ± 0.11 | -1.76 ± 0.1
GAGGAGCAAUAUUACGGCGC | -1.62 ± 0.34 | -0.697 ± 0.37
AAAAAGCAAUAUUACGAUUU | 0.149 ± 0.074 | 0.324 ± 0.095
AUCUAGCAAUAUUACGACCG | -0.961 ± 0.39 | -0.253 ± 0.33
CUCAAGCAAUAUUACGGCUA |  | -2.22 ± 0.35
CGAAAGCAAUAUUACGUACG | -1.5 ± 0.076 | -1.27 ± 0.11
ACCGAGCAAUAUUACGAUUG | -3.69 ± 0.17 | -2.02 ± 0.18
GGCAAGCAAUAUUACGCUUU | -1.58 ± 0.12 | -0.416 ± 0.12
